From patent US20230257746

The substances below were run against T1, ZNF410 (Homo sapiens) (UniProt Q86VK4). Conditions: CUT&RUN with anti-HA in HUDEP-2 cells.
T1 sequence: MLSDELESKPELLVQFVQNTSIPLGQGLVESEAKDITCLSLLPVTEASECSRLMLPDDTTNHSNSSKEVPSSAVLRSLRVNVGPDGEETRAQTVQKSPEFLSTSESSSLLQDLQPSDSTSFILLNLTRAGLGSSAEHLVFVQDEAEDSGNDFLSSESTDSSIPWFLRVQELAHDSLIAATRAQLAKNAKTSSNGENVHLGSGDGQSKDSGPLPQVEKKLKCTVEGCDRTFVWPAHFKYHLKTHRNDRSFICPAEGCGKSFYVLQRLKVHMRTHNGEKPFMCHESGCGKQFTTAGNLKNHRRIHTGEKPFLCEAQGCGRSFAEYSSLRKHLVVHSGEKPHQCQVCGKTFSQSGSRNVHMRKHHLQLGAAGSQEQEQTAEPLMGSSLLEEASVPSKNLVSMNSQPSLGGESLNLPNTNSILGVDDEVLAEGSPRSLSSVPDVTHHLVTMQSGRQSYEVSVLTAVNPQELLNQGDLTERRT

Row | Substance | binding signal (fold enrichment over IgG)
1 | CHD4 -6 kb enhancer (11 ZNF410 motifs) | 78
2 | CHD4 promoter (16 ZNF410 motifs) | 48
3 | NBPF19 intron site | 11
